Assay results taken from US20230338569A1, “NaPi2b-TARGETED POLYMER ANTIBODY-DRUG CONJUGATE FOR THE TREATMENT OF OVARIAN CANCER” (Mersana Therapeutics, Inc., priority 2021, published 2023).

Test system: patients with higher NaPi2b expression
Assay: MER-XMT-1536-1 clinical trial (ongoing, preliminary data), XMT-1536 monotherapy
Type: in vivo, human
Conditions: patients with higher NaPi2b expression (n=47); preliminary data from MER-XMT-1536-1

B1: XMT-1536: NaPi2b-targeted polymer antibody-drug conjugate: about 8-12 AF-HPA molecules conjugated to cysteines of antibody XMT-1535 via a PHF scaffold (conjugate, chains of the INN, looked up)
VH: QVQLVQSGAEVVKPGASVKMSCKASGYTFTGYNIHWVKQAPGQGLEWIGAIYPGNGDTSYKQKFRGRATLTADTSTSTVYMELSSLRSEDSAVYYCARGETARATFAYWGQGTLVTVSS
VL: DIQMTQSPSSLSASVGDRVTITCSASQDIGNFLNWYQQKPGKTVKVLIYYTSSLYSGVPSRFSGSGSGTDYTLTISSLQPEDFATYYCQQYSKLPLTFGQGTKLELK
modifications: AF-HPA payload via PHF polymer scaffold
notes: NaPi2b-targeted polymer antibody-drug conjugate: about 8-12 AF-HPA molecules conjugated to cysteines of antibody XMT-1535 via a PHF scaffold
  DCR (disease control rate): 74%
  ORR (objective response rate): 32%
  median duration of response: approximately 5 months
